# Data from US20080182299A1.
# Tests used:
# [1] = biological target: Mouse monoclonal antibody clone 13A3.G6.H1, lot #18881C, raised against CGEN3901 (SEQ ID NO:50); assay: antigen capture competitive ELISA format #4; coat CgenBNP_49; detector 13A3.G6.H1; free peptide spiked in serum as competitor
# [2] = biological target: Mouse monoclonal antibody clone 13A3.G6.H1, lot #18881C, raised against CGEN3901 (SEQ ID NO:50); assay: antigen capture competitive ELISA format #4, repeatability tests
# [3] = biological target: Mouse monoclonal antibody clone 13A3.G6.H1, lot #18881C, raised against CGEN3901 (SEQ ID NO:50); assay: antibody capture competitive ELISA format #5; coat 13A3.G6.H1; tracer biotin-labeled CgenBNP_29; unlabeled peptide as competitor
LOD [1] [ng/mL],LOD [2] [ng/mL],LOD [3] [ng/mL],Binder
0.6,1 to 3,,"H-HPLGSPGSASDLETSGLQVRAEGSSGGLDSSNERVLTCCPKRPSSFLWN-OH (cysteine pairing not given here) [HPWN49 (also called herein CgenBNP_49, SEQ ID NO: 49)]"
0.3,1 to 3,5,"AEGSSGGLDSSNERVLTCCPKRPSSFLWN [AEWN 29 (also called herein CgenBNP_29, SEQ ID NO: 48)]"
